Laboratory results from patent publication US20220331426A1, “METHODS OF TREATING CANCER USING TIGIT INHIBITORS AND ANTI-CANCER AGENTS” (Genentech, Inc., priority 2014, published 2022).

Target: T1, human TIGIT (Homo sapiens, UniProt Q495A1)
T1 sequence (Q495A1 22-244): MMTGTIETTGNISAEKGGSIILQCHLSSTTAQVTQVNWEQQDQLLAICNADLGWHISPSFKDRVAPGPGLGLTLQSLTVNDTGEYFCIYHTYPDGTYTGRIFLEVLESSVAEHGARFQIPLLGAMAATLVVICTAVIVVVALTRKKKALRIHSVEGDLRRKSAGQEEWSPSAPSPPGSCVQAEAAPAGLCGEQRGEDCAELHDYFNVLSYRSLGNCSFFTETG
Assay: binding of anti-TIGIT antibodies to human TIGIT
Settings: hamster-anti-mouse anti-TIGIT antibodies; qualitative statement, no method given

B1: 1F4: hamster-anti-mouse anti-TIGIT antibody; light chain SEQ ID NO:14, heavy chain SEQ ID NO:16 (antibody, V domains shown)
VH: EVQLQQSGPELVKPGTSMKISCKASGYSFTGHLMNWVKQSHGKNLEWIGLIIPYNGGTSYNQKFKGKATLTVDKSSSTAYMELLSLTSDDSAVYFCSRGLRGFYAMDYWGQGTSVTVSS
VL: DVVLTQTPLSLSVSFGDQVSISCRSSQSLVNSYGNTFLSWYLHKPGQSPQLLIFGISNRFSGVPDRFSGSGSGTDFTLKISTIKPEDLGMYYCLQGTHQPPTFGPGTKLEVK
specific binding to human TIGIT: specifically bound

B2: 10A7: hamster-anti-mouse anti-TIGIT antibody; light chain SEQ ID NO:13, heavy chain SEQ ID NO:15 (antibody, V domains shown)
VH: EVQLVESGGGLTQPGKSLKLSCEASGFTFSSFTMHWVRQSPGKGLEWVAFIRSGSGIVFYADAVRGRFTISRDNAKNLLFLQMNDLKSEDTAMYYCARRPLGHNTFDSWGQGTLVTVSS
VL: DIVMTQSPSSLAVSPGEKVTMTCKSSQSLYYSGVKENLLAWYQQKPGQSPKLLIYYASIRFTGVPDRFTGSGSGTDYTLTITSVQAEDMGQYFCQQGINNPLTFGDGTKLEIKR
specific binding to human TIGIT: specifically bound
